US20160159920A1
Values joined by “and” are separate entries in the source; they are usually repeats but may differ in a detail not shown here. Identical values can stand only once.

Target: human Leptin receptor (LepR) (human) (UniProt P48357)
Test: cell-based or functional assay

Sequence of human Leptin receptor (LepR) (human) (P48357 22-1165): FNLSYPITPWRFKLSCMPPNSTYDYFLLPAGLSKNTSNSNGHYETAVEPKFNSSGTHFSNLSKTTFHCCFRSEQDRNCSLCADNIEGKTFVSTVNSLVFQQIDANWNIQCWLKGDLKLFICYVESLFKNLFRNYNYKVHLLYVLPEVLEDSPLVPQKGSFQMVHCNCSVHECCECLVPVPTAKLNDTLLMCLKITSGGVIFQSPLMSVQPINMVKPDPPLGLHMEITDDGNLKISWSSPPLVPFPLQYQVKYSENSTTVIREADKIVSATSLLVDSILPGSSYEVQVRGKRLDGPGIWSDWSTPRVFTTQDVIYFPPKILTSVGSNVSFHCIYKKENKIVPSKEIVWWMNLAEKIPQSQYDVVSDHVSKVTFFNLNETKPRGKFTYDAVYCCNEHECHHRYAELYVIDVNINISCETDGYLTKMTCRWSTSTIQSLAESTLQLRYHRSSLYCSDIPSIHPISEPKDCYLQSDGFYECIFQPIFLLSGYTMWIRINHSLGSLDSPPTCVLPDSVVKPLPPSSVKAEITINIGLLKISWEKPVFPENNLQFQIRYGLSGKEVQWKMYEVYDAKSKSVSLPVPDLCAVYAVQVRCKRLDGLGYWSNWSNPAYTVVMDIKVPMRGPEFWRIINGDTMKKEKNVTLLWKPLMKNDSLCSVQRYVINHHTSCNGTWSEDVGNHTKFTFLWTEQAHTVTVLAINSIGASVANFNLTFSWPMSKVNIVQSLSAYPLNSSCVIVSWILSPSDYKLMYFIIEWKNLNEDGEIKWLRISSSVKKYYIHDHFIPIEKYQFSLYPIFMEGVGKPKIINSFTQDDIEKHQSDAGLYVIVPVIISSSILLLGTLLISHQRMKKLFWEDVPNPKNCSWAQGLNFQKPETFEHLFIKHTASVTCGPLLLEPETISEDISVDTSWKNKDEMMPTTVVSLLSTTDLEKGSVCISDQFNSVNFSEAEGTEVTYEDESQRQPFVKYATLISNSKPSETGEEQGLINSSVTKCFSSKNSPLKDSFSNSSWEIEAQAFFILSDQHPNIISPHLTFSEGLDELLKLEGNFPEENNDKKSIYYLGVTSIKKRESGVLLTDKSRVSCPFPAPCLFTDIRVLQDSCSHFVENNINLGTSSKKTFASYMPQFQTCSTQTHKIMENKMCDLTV

For “hLeptin (SEQ ID NO: 238) (from UniProt P41159 22-167) (ligand)”, the EC50, AlamarBlue proliferation of Baf3 stable cells overexpressing LepR was 129 ρM and 58.2 ρM.
